Series [1] deals with the molecule itself. The series can be described thus: SEC; purified His6-SANBR(BTB) on a Superdex-200 10/30 column, compared with molecular weight standards; SEC buffer 10 mM HEPES pH 8.0, 0.3 M NaCl, 10% glycerol, 1 mM TCEP.
For series [2], the target named is T1, GST-tagged mouse HDAC1 (mouse, UniProt O09106 1-482).
T1 construct: histone deacetylase 1 (HDAC1), mouse; also called GST-HDAC1; source: E. coli BL21DE3(RIPL), purified (glutathione sepharose 4B, SEC)
The series can be described thus: pull-down; 200 nM His6-tagged BTB domain with equimolar GST-tagged protein, 50 mM HEPES pH 8.0, 150 mM NaCl, 0.1% IGEPAL-CA630, 2 mM EDTA, 4 °C; glutathione sepharose 4B; immunoblot anti-His. The conditions noted are these: both partners purified.

T1 sequence (O09106 whole entry): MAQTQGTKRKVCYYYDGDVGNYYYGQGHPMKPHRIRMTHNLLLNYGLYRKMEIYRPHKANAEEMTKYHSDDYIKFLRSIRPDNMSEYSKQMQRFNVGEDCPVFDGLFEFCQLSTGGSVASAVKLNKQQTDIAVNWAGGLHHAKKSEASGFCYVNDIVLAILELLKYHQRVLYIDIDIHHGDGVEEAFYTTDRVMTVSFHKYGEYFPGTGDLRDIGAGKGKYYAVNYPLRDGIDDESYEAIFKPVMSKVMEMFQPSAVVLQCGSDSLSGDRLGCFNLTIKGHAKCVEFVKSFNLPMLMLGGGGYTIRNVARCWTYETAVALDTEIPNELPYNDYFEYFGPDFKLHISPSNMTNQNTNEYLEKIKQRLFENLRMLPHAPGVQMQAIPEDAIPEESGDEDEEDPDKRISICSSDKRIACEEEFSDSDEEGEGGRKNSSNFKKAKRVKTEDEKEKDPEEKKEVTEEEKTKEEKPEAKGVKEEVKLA

B1: His6-SANBR(BTB), the predicted BTB domain of SANBR (amino acids 144-261) (domain or fragment, mouse, UniProt Q68FF0-1 144-261, looked up)
chain: GPNMVIHVCDEAKSLKEDFICPRDLLISEMKYFAEYLSMDAQRWEEVDISVHCDVHIFNWLIKYVKRNTKESKDCEIPALEPGNVISILISSEFLKMDSLVEQCIQYCHKNMNAIVAA
notes: SANBR (KIAA1841), mouse, residues 144-261 containing the BTB domain (predicted BTB domain 147-255); full-length protein has 718 amino acids; cDNA cloned from stimulated mouse splenic B cells; predicted size of the tagged fragment 15 kD; also called His6-tagged SANBR(BTB); KIAA1841 BTB domain; source: E. coli BL21DE3(RIPL), purified (HisTrap FF, SEC); not shown: His6, N-terminal, kept
As for B1, in series [1], the “stoichiometry N” value came out at 2. Besides, the binding result in series [2] is given as “binds”.

Source of the values: article PMC8141524, “The uncharacterized SANT and BTB domain-containing protein SANBR inhibits class switch recombination” (The Journal of Biological Chemistry, 2021).
